This note sets out measurements from patent publication US20250011433A1 (GLIKNIK, published 2025).

Like-named read-outs stand apart in the source and are kept apart here.

Experiment [1] deals with T1, FcγRI (UniProt P12314 16-288).
T1 construct: also called CD64
The experiment is described as follows: BLI (Octet).

The target in experiment [2] is T2, C1q (UniProt P02745 23-245; P02746 28-253; P02747 29-245).
T2 construct: bought C1q coated on ELISA plates at 1 µg/ml; also called complement C1q; complement factor C1q
T2 sequence (P02745 23-245 limits assumed, chain 1 of 3): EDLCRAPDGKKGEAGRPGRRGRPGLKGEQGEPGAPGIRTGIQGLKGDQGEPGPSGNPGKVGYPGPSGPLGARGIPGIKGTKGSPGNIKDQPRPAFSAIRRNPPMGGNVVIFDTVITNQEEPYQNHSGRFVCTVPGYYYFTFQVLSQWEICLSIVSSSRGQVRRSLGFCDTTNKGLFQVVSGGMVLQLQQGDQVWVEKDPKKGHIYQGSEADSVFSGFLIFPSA
T2 sequence (P02746 28-253 limits assumed, chain 2 of 3): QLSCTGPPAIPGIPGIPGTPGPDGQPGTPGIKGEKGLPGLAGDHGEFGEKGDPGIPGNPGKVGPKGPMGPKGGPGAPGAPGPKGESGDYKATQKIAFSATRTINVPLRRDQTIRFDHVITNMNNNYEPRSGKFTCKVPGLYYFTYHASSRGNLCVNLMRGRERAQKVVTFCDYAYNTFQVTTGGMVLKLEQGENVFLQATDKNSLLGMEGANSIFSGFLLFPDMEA
T2 sequence (P02747 29-245 limits assumed, chain 3 of 3): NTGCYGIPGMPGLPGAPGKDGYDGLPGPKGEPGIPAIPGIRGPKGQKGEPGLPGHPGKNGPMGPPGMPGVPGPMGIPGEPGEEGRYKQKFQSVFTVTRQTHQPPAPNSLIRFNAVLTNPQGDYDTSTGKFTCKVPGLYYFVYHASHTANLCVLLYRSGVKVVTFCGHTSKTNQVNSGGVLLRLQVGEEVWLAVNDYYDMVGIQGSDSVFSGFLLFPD
The experiment is described as follows: ELISA on coated C1q.

Experiment [3] concerns the target T1, FcγRI. The experiment is described as follows: BLI (Octet). As for the experimental part: (§1) Binding of complement-preferential stradomers or parent stradomer G045c to FcγRI, FcγRIIb, FcγRIIIa, FcγRIIa, or FcRn was assessed. RU values of dissociation were measured by biolayer interferometry using a ForteBio Octet instrument. His-tagged receptor proteins were bound to the sensor tip in 1× kinetic analysis buffer from ForteBio after which the on rate of the receptor/protein was measured by transferring the sensor tip to a 1× kinetics buffer containing the purified stradomer of choice. Off rate was measured by transferring the sensor tip to a 1× kinetics buffer, and RU value was calculated from the measured maximum binding using the ForteBio software. Biolayer interferometry detects the binding between a ligand immobilized on the biosensor tip surface and an analyte in solution. When binding occurs it produces an increase in optical thickness at the biosensor tip, which results in a wavelength shift (detected as a response unit of “RU”). The maximum binding level (RU max) is the maximum possible amount of sample binding at equilibrium that saturates the amount of ligand on the sensor surface. The RU 300 is the residual sample binding after 300 seconds of dissociation and is useful to characterize the rate of dissociation of the test article from the test ligand.
(§2) For each stradomer in Tables 5-9, the level of canonical FcγR binding, complement C1q binding, and CDC inhibition were determined according to the methods described in Example 1.
This is another data set of the same source.

Experiment [4] has as its target T3, FcγRIIb (UniProt P31994 46-217, limits assumed).
T3 sequence (looked up): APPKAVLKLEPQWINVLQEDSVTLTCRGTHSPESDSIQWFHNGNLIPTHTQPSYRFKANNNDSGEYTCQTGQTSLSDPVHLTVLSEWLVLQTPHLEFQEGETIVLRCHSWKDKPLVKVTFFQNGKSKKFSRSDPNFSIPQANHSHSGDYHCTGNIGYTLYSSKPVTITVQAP
The experiment is described as follows: BLI (Octet). As to the method:
as §1, §2

In experiment [5] the target is T2, C1q. The experiment is described as follows: ELISA on coated C1q. As to the method:
(§3) For C1q binding, 96 well plates were coated with C1q (Sigma Cat #: C1740 1 μg/ml) overnight in PBS. After coating, plates were washed 3 times with standard wash buffer (iX PBS+0.05% Tween 20) and blocked with blocking buffer (1% BSA+1× PBS+0.05% Tween 20) for 2 hours at RT. Following blocking, plates were incubated with compound diluted in blocking buffer 100 μL/well and washed 3 times with standard washing buffer. C1q-bound compound was detected by incubation with 1:5000 biotinylated mouse anti-human IgG1(Cat #555869, BD Biosciences) and Streptavidin-HRP (Cat #: 7100-05 Southern Biotech) (100 μl/well) for 1 hour at room temperature followed by washing 3 times with washing buffer, after which color was developed using the standard TMB method according to manufacturer's protocol for 15 minutes. Absorbance was read at 450 nm.
as §2
This is another data set of the same source.

Experiment [6] has as its target T1, FcγRI. Nature of the experiment: BLI (Octet). As to the method:
as §1
This is another data set of the same source.

Experiment [7] deals with T3, FcγRIIb. The experiment is described as follows: BLI (Octet). As to the method:
as §1
The source holds these as a separate data set.

Experiment [8] deals with T2, C1q. The experiment is described as follows: ELISA on coated C1q. As for the experimental part: as §3
The source holds these as a separate data set.

The target of a further experiment is FcγRIIIa (UniProt P08637 17-208). Nature of the experiment: BLI (Octet); legend: - indicates no binding. As for the experimental part: as §1
Chain of FcγRIIIa (P08637 17-208 limits assumed): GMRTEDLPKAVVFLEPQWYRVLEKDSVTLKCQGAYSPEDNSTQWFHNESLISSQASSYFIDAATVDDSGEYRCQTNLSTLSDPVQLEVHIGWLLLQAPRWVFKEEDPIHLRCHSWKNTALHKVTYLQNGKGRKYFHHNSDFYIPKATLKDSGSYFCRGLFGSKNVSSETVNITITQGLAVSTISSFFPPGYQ

T1 sequence (P12314 16-288 limits assumed): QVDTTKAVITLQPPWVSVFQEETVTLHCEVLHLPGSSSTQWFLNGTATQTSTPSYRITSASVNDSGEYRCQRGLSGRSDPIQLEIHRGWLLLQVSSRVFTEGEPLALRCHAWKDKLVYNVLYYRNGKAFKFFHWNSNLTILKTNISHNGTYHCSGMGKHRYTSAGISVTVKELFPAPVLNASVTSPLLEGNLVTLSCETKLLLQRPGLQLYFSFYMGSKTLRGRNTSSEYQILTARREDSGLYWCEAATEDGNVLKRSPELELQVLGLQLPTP

B1: G1001 (Fc fusion)
chain: ERKCCVECPPCPEPKSCDKTHTCPPCPAPELLGGPSVFLFPPKPKDTLMISRTPEVTCVVVDVEFEDPEVKFNWYVDGVEVHNAKTKPREEQYASTYRVVSVLTVLHQDWLNGKEYKCKVTNKALPAPIEKTISKAKGQPREPQVYTLPPSREEMTKNQVSLTCLVKGFYPSDIAVEWESNGQPENNYKTTPPVLDSDGSFFLYSKLTVDKSRWQQGNVFSCSVMHEALHNHYTQKSLSLSPGK
notes: G019 background, S267E/H268F/S324T/N297A
For the molecule B1, the binding result is on record as “binds” with FcγRI [1] and “no binding” with C1q [2].

B2: G1048 (Fc fusion)
chain: ERKCCVECPPCPEPKSCDKTHTCPPCPAPELLRGPSVFLFPPKPKDTLMISRTPEVTCVVVDVEFEDPEVKFNWYVDGVEVHNAKTKPREEQYNSTYRVVSVLTVLHQDWLNGKEYKCKVTNKAFPAPIEKTISKAKGQPREPQVYTLPPSREEMTKNQVSLTCLVKGFYPSDIAVEWESNGQPENNYKTTPPVLDSDGSFFLYSKLTVDKSRWQQGNVFSCSVMHEALHNHYTQKSLSLSPGK
notes: G019 background, G236R/L328F/S267E/H268F/S324T
B2: the binding result with C1q [2] was “no binding”.

B3: G1109 (Fc fusion)
chain: EPKSCDKTHTCPPCPAPPLLGGPSVFLFPPKPKDTLMISRTPEVTCVVVDVEFEDPEVKFNWYVDGVEVHNAKTKPREEQYNSTYRVVSVLTVLHQDWLNGKEYKCKVTNKALPAPIEKTISKAKGQPREPQVYTLPPSRDELTKNQVSLTCLVKGFYPSDIAVEWESNGQPENNYKTTPPVLDSDGSFFLYSKLTVDKSRWQQGNVFSCSVMHEALHNHYTQKSLSLSPGKERKCCVECPPCP
notes: G045c background, E233P/S267E/H268F/S324T; leader 1-20 cleaved
As for B3, the binding result with FcγRI [3], with FcγRIIb [4] and with C1q [5] was “binds” in each case.

B4: G1025 (Fc fusion)
chain: EPKSCDKTHTCPPCPAPELLGGDSVFLFPPKPKDTLMISRTPEVTCVVVDVEFEDPEVKFNWYVDGVEVHNAKTKPREEQYNSTYRVVSVLTVLHQDWLNGKEYKCKVTNKALPAPIEKTISKAKGQPREPQVYTLPPSRDELTKNQVSLTCLVKGFYPSDIAVEWESNGQPENNYKTTPPVLDSDGSFFLYSKLTVDKSRWQQGNVFSCSVMHEALHNHYTQKSLSLSPGKERKCCVECPPCP
notes: G045c background, P238D/S267E/H268F/S324T; leader 1-20 cleaved
In the case of B4, the binding result is on record as “binds” with FcγRI [6], “binds” with FcγRIIb [7], “binds” in the experiment with C1q [8] and “no binding” in the experiment with FcγRIIIa.

B5: G1132 (Fc fusion)
chain: EPKSCDKTHTCPPCPAPELLGGPSVFLFPPKPKDTLMISRTPEVTCVVVDVRFEDPEVKFNWYVDGVEVHNAKTKPREEQYASTYRVVSVLTVLHQDWLNGKEYKCKVTNKALPAPIEKTISKAKGQPREPQVYTLPPSRDELTKNQVSLTCLVKGFYPSDIAVEWESNGQPENNYKTTPPVLDSDGSFFLYSKLTVDKSRWQQGNVFSCSVMHEALHNHYTQKSLSLSPGKERKCCVECPPCP
notes: G045c background, S267R/H268F/S324T/N297A; leader 1-20 cleaved
B5: the binding result in the experiment with FcγRI [3] and in the experiment with C1q [5] was “binds” in each case.

B6: G1006 (Fc fusion)
chain: EPKSCDKTHTCPPCPAPELLGGPSVFLFPPKPKDTLMISRTPEVTCVVVAVEFEDPEVKFNWYVDGVEVHNAKTKPREEQYNSTYRVVSVLTVLHQDWLNGKEYKCKVTNKALPAPIEKTISKAKGQPREPQVYTLPPSRDELTKNQVSLTCLVKGFYPSDIAVEWESNGQPENNYKTTPPVLDSDGSFFLYSKLTVDKSRWQQGNVFSCSVMHEALHNHYTQKSLSLSPGKERKCCVECPPCP
notes: G045c background, D265A/S267E/H268F/S324T; leader 1-20 cleaved
On to B6, for which the binding result in the experiment with FcγRI [6] is listed as “binds”; with FcγRIIb [7], “binds”; with C1q [8], “binds”; with FcγRIIIa, “no binding”.

B7: G1044 (Fc fusion)
chain: EPKSCDKTHTCPPCPAPELLGGDSVFLFPPKPKDTLMISRTPEVTCVVVCVEFEDPEVKFNWYVDGVEVHNAKTKPREEQYNSTYRVVSVLTVLHQDWLNGKEYKCKVTNKALPAPIEKTISKAKGQPREPQVYTLPPSRDELTKNQVSLTCLVKGFYPSDIAVEWESNGQPENNYKTTPPVLDSDGSFFLYSKLTVDKSRWQQGNVFSCSVMHEALHNHYTQKSLSLSPGKERKCCVECPPCP
B7: the results for the binding result in the experiment with FcγRI [1] and with C1q [2] were “binds” and “no binding”, respectively.

B8: G1046 (Fc fusion)
chain: EPKSCDKTHTCPPCPAPELLGGDSVFLFPPKPKDTLMISRTPEVTCVVVWVEFEDPEVKFNWYVDGVEVHNAKTKPREEQYNSTYRVVSVLTVLHQDWLNGKEYKCKVTNKALPAPIEKTISKAKGQPREPQVYTLPPSREEMTKNQVSLTCLVKGFYPSDIAVEWESNGQPENNYKTTPPVLDSDGSFFLYSKLTVDKSRWQQGNVFSCSVMHEALHNHYTQKSLSLSPGKERKCCVECPPCP
notes: G045c background, P238D/D265W/S267E/H268F/S324T; leader 1-20 cleaved
Turning to B8, the figures for the binding result with FcγRI [6], in the experiment with C1q [8] and with FcγRIIIa were “binds”, “binds” and “no binding”, respectively.

B9: G1042 (Fc fusion)
chain: EPKSCDKTHTCPPCPAPPLLRGPSVFLFPPKPKDTLMISRTPEVTCVVVDVEFEDPEVKFNWYVDGVEVHNAKTKPREEQYNSTYRVVSVLTVLHQDWLNGKEYKCKVTNKAFPAPIEKTISKAKGQPREPQVYTLPPSRDELTKNQVSLTCLVKGFYPSDIAVEWESNGQPENNYKTTPPVLDSDGSFFLYSKLTVDKSRWQQGNVFSCSVMHEALHNHYTQKSLSLSPGKERKCCVECPPCP
notes: G045c background, E233P/G236R/S267E/H268F/S324T/L328F; leader 1-20 cleaved
Take B9: the binding result in the experiment with FcγRI [6] is on record as “binds”; in the experiment with FcγRIIb [7], “binds”; with C1q [8], “binds”; in the experiment with FcγRIIIa, “no binding”.

B10: G1043 (Fc fusion)
chain: EPKSCDKTHTCPPCPAPELLGGDSVFLFPPKPKDTLMISRTPEVTCVVVGVEFEDPEVKFNWYVDGVEVHNAKTKPREEQYNSTYRVVSVLTVLHQDWLNGKEYKCKVTNKALPAPIEKTISKAKGQPREPQVYTLPPSREEMTKNQVSLTCLVKGFYPSDIAVEWESNGQPENNYKTTPPVLDSDGSFFLYSKLTVDKSRWQQGNVFSCSVMHEALHNHYTQKSLSLSPGKERKCCVECPPCP
notes: G045c background, P238D/D265G/S267E/H268F/S324T; leader 1-20 cleaved
Turning to B10, the binding result in the experiment with FcγRI [6] is on record as “binds”; in the experiment with FcγRIIb [7], “binds”; in the experiment with C1q [8], “binds”; with FcγRIIIa, “no binding”.

B11: G1071d2 (Fc fusion)
chain: EPKSCDKTHTCPPCPAPELLGGPSVFLFPPKPKDTLMISRTPEVTCVVVDVSFEDPEVKFNWYVDGVEVHNAKTKPREEQYNSAYRVVSVLTVLHQDWLNGKEYKCKVTNKALPAPIEKTISKAKGQPREPQVYTLPPSRDELTKNQVSLTCLVKGFYPSDIAVEWESNGQPENNYKTTPPVLDSDGSFFLYSKLTVDKSRWQQGNVFSCSVMHEALHNHYTQKSLSLSPGKERKCCVECPPCP
notes: G045c background, H268F/S324T/T299A; leader 1-20 cleaved
Consider B11, for which the binding result with FcγRI [3], in the experiment with FcγRIIb [4] and in the experiment with C1q [5] was “binds” each time.

B12: G1027 (Fc fusion)
chain: EPKSCDKTHTCPPCPAPELLGGDSVFLFPPKPKDTLMISRTPEVTCVVVDVEFEDPEVKFNWYVDGVEVHNAKTKPREEQYASTYRVVSVLTVLHQDWLNGKEYKCKVTNKALPAPIEKTISKAKGQPREPQVYTLPPSRDELTKNQVSLTCLVKGFYPSDIAVEWESNGQPENNYKTTPPVLDSDGSFFLYSKLTVDKSRWQQGNVFSCSVMHEALHNHYTQKSLSLSPGKERKCCVECPPCP
notes: G045c background, P238D/S267E/H268F/N297A/S324T; leader 1-20 cleaved
Take B12: the binding result is “binds” in the experiment with FcγRI [6], “binds” with FcγRIIb [7], “binds” with C1q [8] and “no binding” in the experiment with FcγRIIIa.
